Assay results: PMC8584533, “Hetero/Homo-Complexes of Sucrose Transporters May Be a Subtle Mode to Regulate Sucrose Transportation in Grape Berries” (International Journal of Molecular Sciences, 2021)

T1: SUC11 (Chardonnay) (Vitis vinifera, UniProt Q9SQK6)
T1 construct: gene VvSUC11; full length, 500 residues, one site different from Thompson Seedless; expressed in yeast SUSY7/ura3
T1 sequence (Q9SQK6 1-501): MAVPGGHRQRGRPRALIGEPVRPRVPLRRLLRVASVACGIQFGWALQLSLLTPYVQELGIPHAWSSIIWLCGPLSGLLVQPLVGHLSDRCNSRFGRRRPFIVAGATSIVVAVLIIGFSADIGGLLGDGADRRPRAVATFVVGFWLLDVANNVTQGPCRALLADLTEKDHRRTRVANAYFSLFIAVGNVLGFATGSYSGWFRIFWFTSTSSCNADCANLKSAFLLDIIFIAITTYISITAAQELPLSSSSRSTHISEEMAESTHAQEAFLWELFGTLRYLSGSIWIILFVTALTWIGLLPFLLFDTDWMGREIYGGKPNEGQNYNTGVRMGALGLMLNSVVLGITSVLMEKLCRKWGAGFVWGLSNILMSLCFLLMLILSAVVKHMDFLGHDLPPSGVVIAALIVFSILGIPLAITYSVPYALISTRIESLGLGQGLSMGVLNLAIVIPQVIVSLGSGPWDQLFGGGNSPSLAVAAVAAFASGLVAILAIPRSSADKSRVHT

B1: VvSUC11 (Vitis vinifera) (protein)
chain: T1 sequence (Q9SQK6 1-501)
notes: full length, 500 residues (printed), leaf cDNA in pDR196, expressed in yeast SUSY7/ura3
B2: VvSUC27 (Vitis vinifera) (protein)
chain: MELAKPSSVFAIQDHQSSSPPTPIWKTVVVASIAAGIQFGWALQLSLLTPYVQLLGIPHKWAAFIWLCGPISGMIVQPVVGYHSDRCTSRFGRRRPFIAAGAVLVAIAVFLIGYAADIGRVSGDPLHNTIKTRAVAVFVVGFWILDVANNMLQGPCRALLADLSGTSARRTRTANALYSFFMAVGNVLGYAAGSFSKLHKMFPFARTQACDLYCANLKSCFFLSIALLLILTIIAFATVHETPLNRADIAVVEAGQPFYSQMMNAFRQLRRPMWVLLLVTCLNWIGWFPFLLFDTDWMGREVYGGTVGEGPRGRLYDLGVRAGSLGLMLNSVVLGLMSLGVEFFGRGVGGVKRLWGGVNFLLALCLALTVLVSKLAASWRHSLGGELHPPPIGIKAGALSLFAVMGVPLAITYSIPFALASIFCHSSGAGQGLSLGVLNLAIVVPQMMVSVASGPWDARFGGGNLPAFVVGAFAAALNGVLALTMLPAPPPDVPNTKDERTQPSS
notes: full length, 504 residues (printed), leaf cDNA in pDR196, expressed in yeast SUSY7/ura3
B3: VvSUC12 (Vitis vinifera) (protein)
chain: MPETMDAPSIRVPYKNLKQAEVELVAADEPRHGADLNSRVPNGTSDPSSSPSSIPHPPKHGGLRTLILSCMIAAGVQFGWALQLSLLTPYIQTLGIEHAFSSFIWLCGPITGLVVQPCVGIWSDKCSSKYGRRRPFILAGSLMISVAVTIIGFSADIGYLLGDTNMDCRKFKGTRTWAAIIFVLGFWMLDLANNTVQGPARALLADLSGPDQRNSANAIFCSWMAVGNILGFSAGASGHWHRWFPFLLNKACCEACGNLKAAFLIAVVFLTLCTLVTLYFAEEVPLMAYQPHHLSDSAPLLDNPQQIGFDNSKSKLDMSAVDNATGNNPESSYEINKNAKHLTPIVQEQNESFSDGPGAVLVNLLTSLRHLPPAMHSVLLVMALSWLSWFPFFLFDTDWMGREVYHGDPKGDESAVKAYDAGVREGAFGLLLNSVDLGISSFLIEPMCQRMGARLVWAMSNFIVFACMAGTAIISLVSVNEYITEGIQHAIGENRAIKIASLVVFALLGFPLSITYSVPFSITAELTADTGGGQGLAIGVLNLAIVIPQMIVSLGAGPWDALFGGGNIPAFVLAALFALAAGVIATLKLPNLSSSSYKSSGFHFGNFPASMR
notes: full length, 611 residues (printed), leaf cDNA in pDR196, expressed in yeast SUSY7/ura3

Tests used:
[1] = target: T1, SUC11 (Chardonnay); test: sucrose transport in yeast SUSY7/ura3; assay type: cell-based; conditions: 0.1, 0.2 and 2 mM sucrose
[2] = substrate: OC[C@H]1O[C@@](CO)(O[C@H]2O[C@H](CO)[C@@H](O)[C@H](O)[C@H]2O)[C@@H](O)[C@@H]1O; test: cells, lysate or membranes; assay type: cell-based, Vitis vinifera; conditions: pH 5.0, 30 °C, 10 mM glucose, 20 min, expressed alone, labelled compound

Molecule | sucrose transport ability [1] | Km [2] [µM]
OC[C@H]1O[C@@](CO)(O[C@H]2O[C@H](CO)[C@@H](O)[C@H](O)[C@H]2O)[C@@H](O)[C@@H]1O [sucrose] | did not affect the structure (Figure S5a) or sucrose transport ability | –
B1 | – | 354
B2 | – | 3064
B3 | – | 943
